{"source": "patent US10562935B2", "about": "“Stapled peptides and uses thereof” (London Health Sciences Centre Research Inc., priority 2015, dated 2020)", "assay": "Circular dichroism (CD) spectroscopy of HABD2 peptides in Milli-Q water (Example 1)", "type": "physicochemical", "description": "In addition, a large mean residue ellipticity indicates greater α-helical character. […] This was predicted to be the case, as there is a lack of contributing residues that might form a hydrophobic core, thereby helping to stabilize the secondary structure of the linear peptide. For this reason, bridges were introduced into the peptides. […] The differences in α-helicity induced by the bridges placed at different points within each peptide may be due to the differences in their primary sequences. Specifically, two amino acids (at the i and i+4 position) have to be replaced in order to form the lactam bridge. In compound 133, leucine was replaced at both the i and i+4 position; while in compound 136, glutamine was replaced at the i position and aspartic acid was replaced at i+4. Leucine and glutamine are proposed to be helix-stabilizing residues.\nA larger portion of the RHAMM protein was used as the reference for α-helical character of the truncated peptides. 7 kDa RHAMM (SEQ ID NO: 1) is a mini protein that is composed of 62 amino acids, which was derived from the C-terminus of the full-length RHAMM sequence. It contains both HABDs, and is predicted to have almost complete α-helix shape, similar to that of native full-length RHAMM.\nA peptide's α-helicity can be quantified using equations 1-3: fH=[([θ]obs222−[θ]c)/([θ]max222−[θ]c)] (Equation 1) [θ]c=2220+53T (Equation 2) [θ]max222=(−44000+250T)(1−k/N) (Equation 3) where fH is the ratio of the average number of helical hydrogen bonds divided by the total number of hydrogen bonds that can be found in a peptide, T is the temperature in degrees Celsius, N is the number of residues in the peptide and k is a constant of ellipticity when 100% of the structure is α-helical (3 for carboxyamidated peptides).\nMilli-Q water was chosen as the solvent in which all peptides would be dissolved for CD spectroscopy, as it is a UV invisible solvent, which is a requirement of the analytical technique, and it represents RHAMM's natural environment in the body. Luo and Baldwin [18] stated that when peptides are taken out of their native protein sequence, they usually show little to no helical formation in water alone. For this reason, TFE/H2O solutions are commonly used in studies to observe the α-helix characteristics, and may improve the helical nature of the peptides observed here. However, a helix-stabilizing solvent, such as TFE, would not be as contextually relevant, as there are no solvent stabilizing effects in the body. Thus use of TFE would tend to produce skewed results and not be representative of the peptide's natural behavior."}
{"substance": "Ac-VSKLRSQLVKRKQN-NH2 [Compound 132]", "values": [{"measurement": "[θ]222/[θ]208 ratio of ellipticities", "setting": "0.5 mM in Milli-Q water", "value": 0.27}, {"measurement": "fH fraction helicity", "setting": "0.5 mM in Milli-Q water, equations 1-3", "value": 0.13}, {"measurement": "α-helical character by CD (in words)", "setting": "Milli-Q water", "value": "minimal α-helical character"}, {"measurement": "Molar ellipticity [θ]192", "setting": "λ = 192 nm, 0.5 mM in Milli-Q water", "value": "−433.48 deg cm^2 dmol^−1 residue^−1"}, {"measurement": "Molar ellipticity [θ]208", "setting": "λ = 208 nm, 0.5 mM in Milli-Q water", "value": "−4944.38 deg cm^2 dmol^−1 residue^−1"}, {"measurement": "Molar ellipticity [θ]222", "setting": "λ = 222 nm, 0.5 mM in Milli-Q water", "value": "−1339.76 deg cm^2 dmol^−1 residue^−1"}]}
